{"source": "patent US20230220071A1", "about": "(Hoffmann-La Roche, published 2023)", "key": {"[1]": {"target": "T1, human transferrin receptor on stably transfected CHO-K1 cells (human, UniProt P02786 1-760)", "T1 construct": "whole, on cells; also called hTfR-CHO; huTfR", "assay": "FACS on hTfR-CHO cells"}, "[2]": {"target": "T2, cynomolgus transferrin receptor on stably transfected CHO-K1 cells (cynomolgus)", "T2 construct": "whole, on cells; also called Cyno TfR-CHO; cyTfR", "assay": "FACS on cyTfR CHO cells"}, "[3]": {"target": "T3, biotinylated cynomolgus transferrin receptor (cynomolgus)", "T3 chain": "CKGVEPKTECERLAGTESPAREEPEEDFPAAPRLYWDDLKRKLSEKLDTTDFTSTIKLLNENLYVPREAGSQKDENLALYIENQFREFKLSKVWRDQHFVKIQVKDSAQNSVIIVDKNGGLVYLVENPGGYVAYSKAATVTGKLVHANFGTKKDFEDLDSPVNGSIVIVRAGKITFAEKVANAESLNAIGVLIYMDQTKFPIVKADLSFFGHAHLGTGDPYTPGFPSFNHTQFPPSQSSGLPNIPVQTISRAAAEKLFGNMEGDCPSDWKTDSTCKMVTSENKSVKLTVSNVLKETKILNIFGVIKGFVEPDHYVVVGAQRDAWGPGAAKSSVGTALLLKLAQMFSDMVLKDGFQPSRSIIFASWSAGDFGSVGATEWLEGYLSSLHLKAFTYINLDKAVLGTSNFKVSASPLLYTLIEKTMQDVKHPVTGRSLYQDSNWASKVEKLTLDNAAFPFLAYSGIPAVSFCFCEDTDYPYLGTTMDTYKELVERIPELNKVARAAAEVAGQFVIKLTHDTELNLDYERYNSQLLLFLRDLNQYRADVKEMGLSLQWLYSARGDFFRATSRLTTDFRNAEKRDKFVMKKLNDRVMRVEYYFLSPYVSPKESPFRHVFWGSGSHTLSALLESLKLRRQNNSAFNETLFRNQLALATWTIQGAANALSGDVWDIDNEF", "assay": "SPR BIAcore B4000, biotinylated TfR captured, 25 C", "description": "(§1) A CAP sensor chip (provided in the Biotin CAPture Kit, series S #28-9202-34 GE) was mounted into a BIAcore B4000 system, normalized and addressed in a hydrodynamic manner, according to the manufacturer's instructions. In the first cycle the CAP reagent (as provided in the Kit) was addressed to spot 1, 2, 4 and 5 with a flow rate of 10 μL/min for 300 sec. The human transferrin receptor capture took place in spot 1 (human transferrin receptor-biotinylated) and spot 5 (cynomolgus transferrin receptor-biotinylated) with a flow rate of 10 μL/min and a contact time of 30 sec. The receptors were diluted to a concentration of 50 nM with running buffer (1×PBS #28995084, GE Healthcare, supplemented with 0.25 M NaCl). The antibodies were injected into all flow cells in a concentration series of 100 nM, 50 nM, 25 nM and 0 nM for 180 sec at a flow speed of 30 μL/min. Dissociation time was set to 300 sec. Regeneration of the whole complex from the CAP chip has been performed utilizing the regeneration solution provided in the Biotin CAPture Kit (120 sec with a flow rate of 10 μL/min). To control the active protein concentration a second cycle was performed in spot 5 utilizing biotinylated protein A (#P2165-2MG, Sigma) with a flow rate of 10 μL/min and a contact time of 30 sec. Spot 1 was kept empty in this control cycle. The antibodies and the regeneration were handled like in cycle 1. Relevant kinetic data was calculated using the BIAcore B4000 evaluation software. The dissociation from the human transferrin receptor has been determined applying the 1:1 dissociation fit."}, "[4]": {"target": "T4, human transferrin receptor (BIAcore, construct not stated) (human, UniProt P02786 89-760)", "T4 construct": "also called huTfR", "assay": "SPR (BIAcore)"}, "[5]": {"target": "T5, cynomolgus transferrin receptor (BIAcore, construct not stated) (cynomolgus, UniProt H9EXL1 89-760 (rhesus entry))", "T5 construct": "also called cyTfR; Cyno TfR", "assay": "SPR (BIAcore)"}, "[6]": {"target": "T3, biotinylated cynomolgus transferrin …", "assay": "SPR BIAcore T200, biotinylated TfR captured, 25 C", "description": "For all analysis the Biotin CAPture Kit from GE Healthcare (Instruction 28-9242-34 AB) was used. First the chip was rehydrated by docking it in the BIAcore T200 instrument. After that, the chip was left on standby with running buffer overnight. For surface preparation the Biotin CAPture Reagent was diluted 1:100 in running buffer (1×PBS, supplemented with 0.25 M NaCl). This solution was injected on Flow Cells 1 to 4 for 360 sec with a flow rate of 2 μL/min. Next the sensor surface was conditioned with three one-minute injections of regeneration solution provided in the Biotin CAPture Kit. This has to be done for the docking procedure or for the first time or after storage. A 100 nM human or cynomolgus, respectively, mono-biotinylated transferrin receptor solution should be injected on Flow Cell 2 for 30 sec at a flow rate of 10 μL/min. […] They were injected on the “hu-TfR-flow cell” (e.g. Flow Cell 2 as prepared as outlined above) with an injection time of 180 sec (association) and a flow rate of 10 μL/min. After dissociation phase of 600 sec the surface was regenerated according to the manufacturer's instructions with the regeneration solution provided in the Biotin CAPture Kit and the next cycle was carried out.\nThe kinetic data was evaluated using the BIAcore T200 evaluation software. Especially the dissociation rate constants of the different human transferrin receptor binders were taken into account after the application of the 1:1 Langmuir binding model."}, "[7]": {"target": "T4, human transferrin receptor (BIAcore, …)", "assay": "SPR (BIAcore), human TfR against cyno TfR"}, "[8]": {"target": "T2, cynomolgus transferrin receptor on …", "assay": "FACS, cyno TfR against human TfR"}, "[9]": {"target": "T6, biotinylated human transferrin receptor (human, UniProt P02786 89-760, limits assumed, biotinylated (mono-biotinylated in Example 13))", "T6 construct": "also called human transferrin receptor-biotinylated; mono-biotinylated human transferrin receptor", "T6 sequence (P02786 89-760 limits assumed)": "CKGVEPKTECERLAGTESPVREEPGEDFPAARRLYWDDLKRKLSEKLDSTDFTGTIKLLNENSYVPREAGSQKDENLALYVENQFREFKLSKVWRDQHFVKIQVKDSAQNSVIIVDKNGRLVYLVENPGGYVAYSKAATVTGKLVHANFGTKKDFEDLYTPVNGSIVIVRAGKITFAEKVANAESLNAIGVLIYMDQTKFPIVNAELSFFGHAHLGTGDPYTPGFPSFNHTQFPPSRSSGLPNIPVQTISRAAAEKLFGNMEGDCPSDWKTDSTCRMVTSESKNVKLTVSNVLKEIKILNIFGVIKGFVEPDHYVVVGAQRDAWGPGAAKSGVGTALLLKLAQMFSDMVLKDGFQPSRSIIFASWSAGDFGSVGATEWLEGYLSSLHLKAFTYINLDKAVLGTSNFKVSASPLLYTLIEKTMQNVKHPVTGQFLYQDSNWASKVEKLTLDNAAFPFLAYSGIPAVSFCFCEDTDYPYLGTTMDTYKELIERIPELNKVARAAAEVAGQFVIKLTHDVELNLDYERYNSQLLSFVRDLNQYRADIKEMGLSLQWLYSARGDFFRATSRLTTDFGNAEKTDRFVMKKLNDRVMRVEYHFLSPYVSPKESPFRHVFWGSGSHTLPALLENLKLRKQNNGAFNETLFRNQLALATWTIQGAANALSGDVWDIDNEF", "assay": "SPR BIAcore B4000, biotinylated TfR captured, 25 C", "description": "as §1"}}, "data": [{"binder": "murine anti-transferrin receptor antibody 128.1 (antibody, V domains shown, Mouse anti-human TfR antibody) VH: QVQLVQSGAEVKKPGASVKVSCKASGYTFTGYTMNWVRQAPGQGLEWMGRINPHNGGTDYAQKFQGRVTMTRDTSISTAYMELSRLRSDDTAVYYCARGYYYYSLDYWGQGTLVTVSS VL: DIQMTQSPSSLSASVGDRVTITCRASSSIRYIHWYQQKPGKAPKRLIYDTSNLASGVPSRFSGSGSGTEFTLTISSLQPEDFATYYCHQRNSYPWTFGQGTRLEIK", "values": [{"measurement": "EC50", "setting": "[1]", "value": 0.096, "unit": "µg/mL"}, {"measurement": "EC50", "setting": "[2]", "value": 0.314, "unit": "µg/mL"}, {"measurement": "koff", "setting": "[3]", "value": 0.0778, "unit": "s⁻¹"}, {"measurement": "koff", "setting": "[4]", "value": 0.000606, "unit": "s⁻¹"}, {"measurement": "koff", "setting": "[5]", "value": 0.0547, "unit": "s⁻¹"}, {"measurement": "Kd", "setting": "[6]", "value": 136, "unit": "nM"}, {"measurement": "koff", "setting": "[6]", "value": 0.0733, "unit": "s⁻¹"}, {"measurement": "kon", "setting": "[6]", "value": 541000, "unit": "M⁻¹ s⁻¹"}, {"measurement": "ratio t1/2 human/Cyno", "setting": "[7]", "value": 90.2}, {"measurement": "ratio EC50 Cyno/human", "setting": "[8]", "value": 3.3}, {"measurement": "ratio max Cyno/human", "setting": "[8]", "value": 0.6}]}, {"binder": "VH23-DANG / VK2-SYS (antibody, V domains shown) VH: QSMQESGPGLVKPSQTLSLTCTVSGFSLSSYAMSWIRQHPGKGLEWIGYIWSGGSTDYASWAKSRVTISKTSTTVSLKLSSVTAADTAVYYCARRYGTSYPDYGDANGFDPWGQGTLVTVSS VL: DIQMTQSPSSLSASVGDRVTITCRASQSISSYLNWYQQKPGKAPKLLIYRASTLASGVPSRFSGSGSGTDFTLTISSLQPEDFATYYCQQSYSSSNVDNTFGGGTKVEIK", "values": [{"measurement": "koff", "setting": "[9]", "value": 0.00522, "unit": "s⁻¹"}]}, {"binder": "VH23-DANG / VK15-AYS (antibody, V domains shown) VH: QSMQESGPGLVKPSQTLSLTCTVSGFSLSSYAMSWIRQHPGKGLEWIGYIWSGGSTDYASWAKSRVTISKTSTTVSLKLSSVTAADTAVYYCARRYGTSYPDYGDANGFDPWGQGTLVTVSS VL: DIVMTQSPDSLAVSLGERATINCKSSQSISSYLIWYQQKPGQPPKLLIYRASTLASGVPDRFSGSGSGTDFTLTISSLQAEDVAVYYCQQAYSSSNVDNTFGGGTKVEIK", "values": [{"measurement": "koff", "setting": "[9]", "value": 0.00697, "unit": "s⁻¹"}]}, {"binder": "VH9-DANG / VK9-NYA (antibody, V domains shown) VH: QQLLESGGGLVQPGGSLRLSCAASGFTFSSYAMSWVRQAPGKGLEWVGYIWSGGSTDYADSVKGRFTISRDNSKNTLYLQMNSLRAEDTAVYYCAKRYGTSYPDYGDANGFDPWGQGTLVTVSS VL: AIQLTQSPSSLSASVGDRVTITCRASQSISSYLAWYQQKPGKAPKLLIYRASTLASGVPSRFSGSGSGTDFTLTISSLQPEDFATYYCQQNYASSNVDNTFGGGTKVEIK", "values": [{"measurement": "koff", "setting": "[9]", "value": 0.00182, "unit": "s⁻¹"}]}, {"binder": "VH7-DANG / VK6-SYS (antibody, V domains shown) VH: QQLVETGGGLIQPGGSLRLSCAASGFSLSSYAMSWVRQAPGKGLEWIGYIWSGGSTDYASWAKGRFTISRDNSKNTLYLQMNSLRAEDTAVYYCARRYGTSYPDYGDANGFDPWGQGTLVTVSS VL: AIQLTQSPSSLSASVGDRVTITCRASQSISSYLSWYQQKPGKAPKLLIYRASTLASGVPSRFSGSGSGTDFTLTISSLQPEDFATYYCQQSYSSSNVDNTFGGGTKVEIK", "values": [{"measurement": "koff", "setting": "[9]", "value": 0.0308, "unit": "s⁻¹"}]}, {"binder": "VH23-DANG / VK17-TYS (antibody, V domains shown) VH: QSMQESGPGLVKPSQTLSLTCTVSGFSLSSYAMSWIRQHPGKGLEWIGYIWSGGSTDYASWAKSRVTISKTSTTVSLKLSSVTAADTAVYYCARRYGTSYPDYGDANGFDPWGQGTLVTVSS VL: AIQLTQSPSSLSASVGDRVTITCRASQSISSYLAWYQQKPGKAPKLLIYRASTLASGVPSRFSGSGSGTDFTLTISSLQPEDFATYYCQQTYSSSNVDNTFGGGTKVEIK", "values": [{"measurement": "koff", "setting": "[9]", "value": 0.00229, "unit": "s⁻¹"}]}, {"binder": "VH9-DANG / VK2-SYS (antibody, V domains shown) VH: QQLLESGGGLVQPGGSLRLSCAASGFTFSSYAMSWVRQAPGKGLEWVGYIWSGGSTDYADSVKGRFTISRDNSKNTLYLQMNSLRAEDTAVYYCAKRYGTSYPDYGDANGFDPWGQGTLVTVSS VL: DIQMTQSPSSLSASVGDRVTITCRASQSISSYLNWYQQKPGKAPKLLIYRASTLASGVPSRFSGSGSGTDFTLTISSLQPEDFATYYCQQSYSSSNVDNTFGGGTKVEIK", "values": [{"measurement": "koff", "setting": "[9]", "value": 0.0402, "unit": "s⁻¹"}]}, {"binder": "VH23-DANG / VK12-HYS (antibody, V domains shown) VH: QSMQESGPGLVKPSQTLSLTCTVSGFSLSSYAMSWIRQHPGKGLEWIGYIWSGGSTDYASWAKSRVTISKTSTTVSLKLSSVTAADTAVYYCARRYGTSYPDYGDANGFDPWGQGTLVTVSS VL: DIQMTQSPSSLSASVGDRVTITCRASQSISSYLAWYQQKPGKAPKLLIYRASTLASGVPSRFSGSRSGTDFTLTISSLQPEDFATYYCQQHYSSSNVDNTFGGGTKVEIK", "values": [{"measurement": "koff", "setting": "[9]", "value": 0.0153, "unit": "s⁻¹"}]}, {"binder": "VH23-DANG / VK6-SYS (antibody, V domains shown) VH: QSMQESGPGLVKPSQTLSLTCTVSGFSLSSYAMSWIRQHPGKGLEWIGYIWSGGSTDYASWAKSRVTISKTSTTVSLKLSSVTAADTAVYYCARRYGTSYPDYGDANGFDPWGQGTLVTVSS VL: AIQLTQSPSSLSASVGDRVTITCRASQSISSYLSWYQQKPGKAPKLLIYRASTLASGVPSRFSGSGSGTDFTLTISSLQPEDFATYYCQQSYSSSNVDNTFGGGTKVEIK", "values": [{"measurement": "koff", "setting": "[9]", "value": 0.0132, "unit": "s⁻¹"}]}]}
